This note sets out measurements from article PMC12903857 (2026).

Non-standard residues stand in square brackets, D forms with d. No end group written: not given here. pS = N[C@@H](COP(=O)(O)O)C(=O)O

Broadly, the Kd is the free concentration of one partner at which half of the binding sites on the other are occupied at equilibrium, for simple one-to-one binding. Higher therefore signals weaker binding.

Sequences and labels used below:
T1: B-RAF 365 (10mer) (Homo sapiens, not fully specified)
T1 chain: DRSS[pS]APNVH

T2: 14-3-3σ, tagged with a Twin-Strep tag (UniProt P31947 1-248)
T2 chain: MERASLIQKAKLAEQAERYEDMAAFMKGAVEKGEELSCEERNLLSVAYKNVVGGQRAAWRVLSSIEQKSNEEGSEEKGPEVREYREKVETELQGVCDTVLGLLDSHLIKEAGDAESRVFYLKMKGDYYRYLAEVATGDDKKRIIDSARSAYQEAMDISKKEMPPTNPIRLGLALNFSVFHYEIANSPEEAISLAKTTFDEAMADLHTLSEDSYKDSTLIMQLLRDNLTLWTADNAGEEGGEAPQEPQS

T3: 14-3-3σ covalently bound to molecular glue 23 (UniProt P31947 1-248, C38 covalently bound to compound 23 (chloroacetamide warhead))
T3 chain: T2 chain

B1: 14-3-3σ (natural protein)
chain: T2 chain
B2: acetylated 12-mer A-RAF peptide (peptide)
chain: IRSTSTPNVHMV
modifications: not fully specified (residue 5, N-terminus); also: phosphoserine at 214, position in chain not mapped
B3: acetylated 12-mer B-RAF peptide (peptide)
chain: DRSSSAPNVHIN
modifications: not fully specified (residue 5, N-terminus); also: phosphoserine at 365, position in chain not mapped
B4: acetylated 12-mer C-RAF peptide (peptide)
chain: QRSTSTPNVHMV
modifications: not fully specified (residue 5, N-terminus); also: phosphoserine at 259, position in chain not mapped

Assay [1] addresses T1, B-RAF 365 (10mer). The assay can be described thus: FP; DMSO.
For assay [2], the target named is T1, B-RAF 365 (10mer). As to the kind of experiment: FP; 100 uM compound 23.
In assay [3] the target is T1, B-RAF 365 (10mer). As to the kind of experiment: FP; 100 uM compound 29.
The target in assay [4] is T1, B-RAF 365 (10mer). The assay can be described thus: FP; 100 uM compound 32.
Assay [5] deals with T1, B-RAF 365 (10mer). As to the kind of experiment: FP; 100 uM compound 37.
In assay [6] the target is T1, B-RAF 365 (10mer). As to the kind of experiment: FP; 100 uM compound 86.
Assay [7] deals with B1. As to the kind of experiment: FP; 100 uM compound 37.
The target of assay [8] is B1. The assay can be described thus: FP; 100 uM compound 70.
Assay [9] has as its target B1. The assay can be described thus: FP; 100 uM compound 79.
Assay [10] addresses B1. The assay can be described thus: FP; 100 uM compound 80.
Assay [11] has as its target B1. As to the kind of experiment: FP; 100 uM compound 83.
Assay [12] deals with B1. As to the kind of experiment: FP; 100 uM compound 86.
The target of assay [13] is B1. The assay can be described thus: FP; DMSO.
In assay [14] the target is B1. As to the kind of experiment: FP; 100 uM compound 29.
In assay [15] the target is B1. As to the kind of experiment: FP; 100 uM compound 32.
For assay [16], the target named is B1. As to the kind of experiment: FP; 100 uM compound 78.
Assay [17] has as its target T2, 14-3-3σ, tagged with a Twin-Strep tag. As to the kind of experiment: SPR.
Assay [18] addresses T3, 14-3-3σ covalently bound to molecular …. The assay can be described thus: SPR; 14-3-3σ covalently bound to molecular glue 23. In general terms: Surface plasmon resonance follows binding to a sensor surface in real time, without labels.
Assay [19] concerns the target B1. The assay can be described thus: FP; 100 uM compound 22.
For assay [20], the target named is B1. As to the kind of experiment: FP; 100 uM compound 23.

On to B1, for which the Kd worked out at 650 nM in [1]; 105 nM in assay [2]; 140 nM in [3]; 112 nM in [4]; 52 nM in assay [5]; 155 nM in assay [6].
In the case of SQRQRSTSTPNVHMV (also: phosphoserine at S259, site in chain not given here) [15-mer C-RAF peptide], the Kd in assay [7] was 136 nM; in [8] it was 100 nM; in [9], 135 nM; in [10] it was 332 nM; in assay [11] it was 145 nM; in assay [12], 140 nM.
With GQRDRSSSAPNVHIN (also: phosphoserine at S365, site in chain not given here) [15-mer B-RAF peptide], the equilibrium dissociation constant (Kd) in assay [13] worked out at 2240 nM; in assay [14], 14 nM; in [15], 245 nM; in assay [7], 25 nM; in assay [8] it was 70 nM; in assay [16], 55 nM. In addition, the Kd in [9] is 60 nM; in assay [10], 220 nM; in assay [11], 94 nM; in assay [12] it was 95 nM.
On to B2, for which the Kd in assay [17] was 2000 nM; in assay [18], 1.7 nM.
B3 came in with a Kd in assay [18] of 6.3 nM. That is a single-digit nanomolar value.
In the case of LQRIRSTSTPNVHMV (also: phosphoserine at S214, site in chain not given here) [15-mer A-RAF peptide], the Kd was 9 nM in [19]; 5 nM in assay [20]; 30 nM in assay [14]; 50 nM in assay [15]; 25 nM in assay [7]; 110 nM in [8]. For the same molecule, the Kd in assay [16] is 120 nM; in assay [9], 115 nM; in assay [10] it was 1100 nM; in [11], 265 nM; in [12], 140 nM.
For the molecule B4, the dissociation constant (Kd) in assay [18] came out at 1.2 nM.
